Assay [1] addresses T1, MUC1 15-mer Ac-PDTRPAPGSTAPPAL-NH2.
T1 construct: coated on a biotin chip
T1 peptide: Ac-PDTRPAPGSTAPPAL-NH2
The assay is described as follows: SPR (BIAcore 2000), 1:1 Langmuir at steady state, 50 RU peptide; 15-mer surface; Fab. How it is done:
(§1) The selected PH1-IgG1 and the Fab PH1 antibodies were evaluated for their binding characteristics by surface plasmon resonance on a BIAcore 2000 apparatus (BIAcore AB, Uppsala, Sweden). A biotin chip was coated with a MUC1 15-mer, containing the minimal PH1 epitope, PAP (Ac-PDTRPAPGSTAPPAL-NH₂ (SEQ ID NO:40) (see Example 2, above), 50 RU and 320 RU) and 60-mer (NH₂-([…])₃-COOH (SEQ ID NO:8) (von Mensdorff-Pouilly et al., Tumor Biol., 19: 186-195 (1998), 50 RU) in HBS-EP buffer (Pharmacia) a surface, blocked with biotin (15 RU), was used as a negative control. The Fab PH1 and PH1-IgG1 were injected in HBS-EP buffer. To minimize rebinding of the antigen binding molecules, a speed of 30 μl/sec was used. Affinity calculation was performed with computer programs provided by BIAcore (BIAEvaluation-version3, BIACore AB). […] The affinity for the PH1 Fab antibody was calculated according to a 1:1 Langmuir stoichiometry at steady state (Chi²: 50.6). Because of the two binding places on the PH1-IgG1, the avidity was calculated as an apparent avidity constant using 1:1 Langmuir determination with mass transfer limitation (Chi²: 42).
(§2) The affinity of the antibody was determined using BIAcore. Affinities of the Fab PH1 were calculated to be an average of 1.4 μM for binding to the 15-mer and 60-mer MUC1 peptide antigen coated surfaces.
Background: Surface plasmon resonance follows binding to a sensor surface in real time, without labels.

Assay [2] has as its target T2, MUC1 60-mer peptide NH2-(…)3-COOH (biotinylated in the ELISAs and selections).
T2 construct: also called biotinylated MUC1 60-mer
The assay is described as follows: ELISA, soluble Fab, biotinylated MUC1 60-mer; relative signal. How it is done: (§3) Soluble Fabs were produced as described (Roovers et al., Br. J. Cancer, 78: 1407-16 (1998)). ELISAs were performed as described by Henderikx et al. (Cancer Res., 58: 4324-4332 (1998)), except the biotinylated MUC1 60-mer was used. The selected PH1 and the affinity-matured antibodies were evaluated for affinity by surface plasmon resonance (SPR) on a BIAcore 2000 apparatus (BIAcore AB, Uppsala, Sweden). Channels of a biotin chip were coated with a MUC1 15-mer, containing the minimal PH1 epitope, PAP, (Ac-PDTRPAPGSTAPPAL-NH₂, (SEQ ID NO:40) 50 RU or 320 RU) or a 60-mer (NH₂-([…])₃-COOH (i.e., containing three copies of SEQ ID NO:8 (von Mensdorff-Pouilly et al., Tumor Biol., 19: 186-195 (1998), 50 RU) in HBS-EP buffer (Pharmacia). One surface was blocked with biotin (15 RU) and used as a negative control. The antibodies were injected in HBS-EP buffer. To minimize rebinding of the antigen binding fragments, the flow speed was 30 μl/sec. Affinity calculation was performed with the BIA-evaluation software provided by the BIAcore. The affinities of the Fabs were calculated according to a 1:1 stoichiometry at steady state.
(In general: In an ELISA, binding on a coated surface is turned into a signal by an enzyme label.)

In assay [3] the target is T1, MUC1 15-mer Ac-PDTRPAPGSTAPPAL-NH2. The assay is described as follows: SPR (BIAcore) Kd assay on MUC1 15-mer. How it is done:
as §3, with “The” for “Soluble Fabs were produced as described (Roovers et al., Br. J. Cancer, 78: 1407-16 (1998)). ELISAs were performed as described by Henderikx et al. (Cancer Res., 58: 4324-4332 (1998)), except the biotinylated MUC1 60-mer was used. The”
The CDR3 variants were extensively tested in BIAcore for the kinetics of the MUC1 peptide interaction. […] Using this off-rate screening with Fabs in the periplasmic extract of E. coli cultures, the clones in Table 9 as well as many more were screened for improvement in off-rate. […] To get accurate measurements, a Kd assay on the BIAcore was used with the MUC1 15-mer (there was no difference in the kinetics of interaction when the MUC1 60-mer was used, data not shown). […]

For assay [4] the target is unchanged. The assay is described as follows: SPR (BIAcore 2000), apparent avidity constant, 1:1 Langmuir with mass transfer limitation, low density surface; 15-mer, low density surface; IgG1 avidity. How it is done: as §1, §2
The target of assay [5] is T2, MUC1 60-mer peptide NH2-(…)3-COOH. The assay is described as follows: phage ELISA on MUC1 antigen (biotinylated MUC1 60-mer).

B1: PH1 Fab antibody (Fab, V domains shown)
VH: QVQLVQSGGGLVQPGGSLRLSCAASGFTFRSNAMGWVRQAPGKGLEWVSGISGSGGSTYYADSVKGRFTISRDNSKNTLYLQMNSLRAEDTAVYYCAKHTGGGVWDPIDYWGQGTLVTVSS
VL: EIVLTQSPLSLPVTPGEPASISCRSSQSLLHSNGYTYLDWYLQKPGQSPQLLIYSGSHRASGVPDRFSGSVSGTDFTLRISRVEAEDVGVYYCMQGLQSPFTFGPGTKVDIKR
notes: Human Fab from a naive phage library; also called Fab PH1; WT-PH1
Take B1: the Kd in assay [1] was 1400 nM.

B2: 7F9 (Fab, V domains shown)
VH: QVQLVQSGGGLVQPGGSLRLSCAASGFTFRSNAMGWVRQAPGKGLEWVSGISGSGGSTYYADSVKGRFTISRDNSKNTLYLQMNSLRAEDTAVYYCAKHTGGGVWDPIGYWGQGTLVTVSS
VL: EIVLTQSPLSLPVTPGEPASISCRSSQSLLHSNGYTYLDWYLQKPGQSPQLLIYSGSHRASGVPDRFSGSVSGTDFTLRISRVEAEDVGVYYCMQGLQSPFTFGPGTKVDIKR
notes: PH1 Fab variant; also called clone 7F9
On to B2, for which, in assay [2], the binding result was “binds”. Also, the “fold improvement of affinity over wild type PH1 Fab” value in assay [3] was less than 2 fold.

B3: PH1-IgG1 (antibody, V domains shown)
VH: QVQLVQSGGGLVQPGGSLRLSCAASGFTFRSNAMGWVRQAPGKGLEWVSGISGSGGSTYYADSVKGRFTISRDNSKNTLYLQMNSLRAEDTAVYYCAKHTGGGVWDPIDYWGQGTLVTVSS
VL: EIVLTQSPLSLPVTPGEPASISCRSSQSLLHSNGYTYLDWYLQKPGQSPQLLIYSGSHRASGVPDRFSGSVSGTDFTLRISRVEAEDVGVYYCMQGLQSPFTFGPGTKVDIKR
notes: Fully human gamma-1/kappa IgG1 from CHO-K1 clone 7F; FITC-labeled or biotinylated in some assays; also called recombinant human MUC1-specific IgG1; PH1-IgG1-FITC
Take B3: the Kd in assay [4] is 8.3 nM.

B4: clone 23 (unselected SPIKE library) (Fab, V domains shown)
VH: QVQLVQSGGGLVQPGGSLRLSCAASGFTFRSNAMGWVRQAPGKGLEWVSGISGSGGSTYYADSVKGRFTISRDNSKNTLYLQMNSLRAEDTAVYYCAKPTGGGAWDPIDYWGQGTLVTVSS
VL: EIVLTQSPLSLPVTPGEPASISCRSSQSLLHSNGYTYLDWYLQKPGQSPQLLIYSGSHRASGVPDRFSGSVSGTDFTLRISRVEAEDVGVYYCMQGLQSPFTFGPGTKVDIKR
On to B4, for which, in assay [5], the “ELISA OD450” value stood at 0.373 OD450.

B5: clone 25 (unselected SPIKE library) (Fab, V domains shown)
VH: QVQLVQSGGGLVQPGGSLRLSCAASGFTFRSNAMGWVRQAPGKGLEWVSGISGSGGSTYYADSVKGRFTISRDNSKNTLYLQMNSLRAEDTAVYYCAKHTGVGVWHPIYYWGQGTLVTVSS
VL: EIVLTQSPLSLPVTPGEPASISCRSSQSLLHSNGYTYLDWYLQKPGQSPQLLIYSGSHRASGVPDRFSGSVSGTDFTLRISRVEAEDVGVYYCMQGLQSPFTFGPGTKVDIKR
In the case of B5, the “ELISA OD450” value in assay [5] came to 0.315 OD450.

B6: clone 20 (unselected SPIKE library) (Fab, V domains shown)
VH: QVQLVQSGGGLVQPGGSLRLSCAASGFTFRSNAMGWVRQAPGKGLEWVSGISGSGGSTYYADSVKGRFTISRDNSKNTLYLQMNSLRAEDTAVYYCASHTGGRGWDPIDYWGQGTLVTVSS
VL: EIVLTQSPLSLPVTPGEPASISCRSSQSLLHSNGYTYLDWYLQKPGQSPQLLIYSGSHRASGVPDRFSGSVSGTDFTLRISRVEAEDVGVYYCMQGLQSPFTFGPGTKVDIKR
For B6, in assay [5], the “ELISA OD450” value amounted to 0.109 OD450.

B7: clone 21 (unselected SPIKE library) (Fab, V domains shown)
VH: QVQLVQSGGGLVQPGGSLRLSCAASGFTFRSNAMGWVRQAPGKGLEWVSGISGSGGSTYYADSVKGRFTISRDNSKNTLYLQMNSLRAEDTAVYYCANQTGGGVWDPIDYWGQGTLVTVSS
VL: EIVLTQSPLSLPVTPGEPASISCRSSQSLLHSNGYTYLDWYLQKPGQSPQLLIYSGSHRASGVPDRFSGSVSGTDFTLRISRVEAEDVGVYYCMQGLQSPFTFGPGTKVDIKR
For the molecule B7, the “ELISA OD450” value in assay [5] amounted to 0.108 OD450.

B8: 11G9 (Fab, V domains shown)
VH: QVQLVQSGGGLVQPGGSLRLSCAASGFTFRSNAMGWVRQAPGKGLEWVSGISGSGGSTYYADSVKGRFTISRDNSKNTLYLQMNSLRAEDTAVYYCAKHTGGGVWDPIGYWGQGTLVTVSS
VL: EIVLTQSPLSLPVTPGEPASISCRSSQSLLHSNGYTYLDWYLQKPGQSPQLLIYSGSHRASGVPDRFSGSVSGTDFTLRISRVEAEDVGVYYCMQGLQSPFTFGPGTKVDIKR
notes: PH1 Fab variant
On to B8, for which, in assay [2], the binding result is recorded as “binds”.

B9: 11F9 (Fab, V domains shown)
VH: QVQLVQSGGGLVQPGGSLRLSCAASGFTFRSNAMGWVRQAPGKGLEWVSGISGSGGSTYYADSVKGRFTISRDNSKNTLYLQMNSLRAEDTAVYYCTKHTGGGVWDPINYWGQGTLVTVSS
VL: EIVLTQSPLSLPVTPGEPASISCRSSQSLLHSNGYTYLDWYLQKPGQSPQLLIYSGSHRASGVPDRFSGSVSGTDFTLRISRVEAEDVGVYYCMQGLQSPFTFGPGTKVDIKR
notes: PH1 Fab variant
Consider B9, for which, in assay [2], the binding result is on record as “binds”.

B10: clone 22 (unselected SPIKE library) (Fab, V domains shown)
VH: QVQLVQSGGGLVQPGGSLRLSCAASGFTFRSNAMGWVRQAPGKGLEWVSGISGSGGSTYYADSVKGRFTISRDNSKNTLYLQMNSLRAEDTAVYYCARHTGGGVWDPIYYWGQGTLVTVSS
VL: EIVLTQSPLSLPVTPGEPASISCRSSQSLLHSNGYTYLDWYLQKPGQSPQLLIYSGSHRASGVPDRFSGSVSGTDFTLRISRVEAEDVGVYYCMQGLQSPFTFGPGTKVDIKR
As for B10, in assay [5], the “ELISA OD450” value turned out to be 0.663 OD450.

B11: 11F4 (Fab, V domains shown)
VH: QVQLVQSGGGLVQPGGSLRLSCAASGFTFRSNAMGWVRQAPGKGLEWVSGISGSGGSTYYADSVKGRFTISRDNSKNTLYLQMNSLRAEDTAVYYCAKHTGGGVWDPISSWGQGTLVTVSS
VL: EIVLTQSPLSLPVTPGEPASISCRSSQSLLHSNGYTYLDWYLQKPGQSPQLLIYSGSHRASGVPDRFSGSVSGTDFTLRISRVEAEDVGVYYCMQGLQSPFTFGPGTKVDIKR
notes: PH1 Fab variant
As to B11, in assay [2], the binding result is reported as “binds”.

B12: 11F7 (Fab, V domains shown)
VH: QVQLVQSGGGLVQPGGSLRLSCAASGFTFRSNAMGWVRQAPGKGLEWVSGISGSGGSTYYADSVKGRFTISRDNSKNTLYLQMNSLRAEDTAVYYCAKHTGVGVWDPMNYWGQGTLVTVSS
VL: EIVLTQSPLSLPVTPGEPASISCRSSQSLLHSNGYTYLDWYLQKPGQSPQLLIYSGSHRASGVPDRFSGSVSGTDFTLRISRVEAEDVGVYYCMQGLQSPFTFGPGTKVDIKR
notes: PH1 Fab variant
B12: the binding result in assay [2] is reported as “binds”.

The record behind these values is patent US20020146750A1 (published 2002).
